Source: the supplement of paper PMC9170038

Test system: K4 kissing-loop RNA reporter
Experiment: apparent KD of K4 kissing-loop reporter; higher = weaker reporter binding
Details: Eterna round: R107
Protocol: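 RNA-MaP round R107: designed RNA switches with theophylline, tryptophan, arginine or FMN aptamers are transcribed on-chip within common flanks. They are titrated with a labelled K4 kissing-loop RNA reporter in RNA-MaP buffer (100 mM Tris pH 7.5, 80 mM KCl, 4 mM MgCl2), without ligand or with the indicated ligand. Median apparent KD per design.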

[1] = input ligand: theophylline 20 uM
[2] = input ligand: tryptophan 2.4 mM
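Note: bound reporter read as fluorescence of individual clusters on recovered sequencing chips by microscopy, with normalized cluster intensities fitted with a binding model.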

Sequence | apparent KD of K4 kissing-loop reporter (input ligand: FMN 200 uM) [nM] | apparent KD of K4 kissing-loop reporter (input ligand: arginine 13.2 mM) [nM] | apparent KD of K4 kissing-loop reporter (input ligand: none) [nM] | apparent KD of K4 kissing-loop reporter [1] [nM] | apparent KD of K4 kissing-loop reporter [2] [nM]
AAGUGAUGUUGUAGUGAUGUUGUGAUGUUGCAGGAUAUAUAGUGAUGUAGAAGGGUAAGUACUGAUUUUUUUUUUGAGUGAUGUU [ccbyzrmullin] | 96.4 | 43 | 74.5 | 53.9 | 73.8
AUUUGCUAGAAAGGAUAUAUUAGCUUGGUCACCGCGUCCGAUGGUUAAACUUCGUGAGUGAUGUUCAUAGAAGGUUCAGCCUCGA [theeternabot_exclusion_KL_FMN_B_20] | 155 | 122 | 146 | 138 | 124
UGUGUUUACCUGACUCAGUGAUGUUGAGAAGGAGCGUGCGAAUGCACAGGUAGGUCGCUCAACCUAAAUUCAGGUGAGCACUAAA | 303 | 76.4 | 408 | 656 | 724
AAGGCCACGAGAAGGAGCGUGUUGUGGAGUGAUGUUCCAUUGUAGACCUAAGGUCUGCAAGCACAGGUAGGUCGCUCGUGGUCAA [whbob_SS_Arginine_B_2t149] | 127 | 123 | 139 | 138 | 127
UGUGCUGUGUAGUGUAAUGUUUUGCGGGAUACCAGAGUCUUUUUAUUCCCUUGGCAGCUUGAGUGAUGUUUGAUGCUGUUCUUGU [bbtbmullin] | 376 | 322 | 356 | 336 | 313
AUUUAUUCGAGUGAUGUUCGUGUUUUUUCAGAGGAUAUGCGUAAUAGCAGAAGGCUGUUUUAUAUUAUAUUUUGAUUUUUUUAAA [JR_Nu_ExcFMNA_Sub025] | 92.2 | 123 | 86.1 | 106 | 73.5
GCCCACAUUAGUGAUACCAGUGGGCACUCACCAGUUCAGUGAUGUUGGACGCAGUGUGGUCACCCUUGGCAGCACCGAUGCCCUU [theeternabot_sameState_KL_Theo_B_32] | 129 | 128 | 122 | 122 | 129
UGCAUGCUAGUAGUGAUGUUACAUGAUGAUACCAGUGCUUUUUUGCACCCUUGGCAGCGUCAUUUUGCAUGCACGUCGAAAGACG | 511 | 473 | 565 | 344 | 474
UGGACCUGACUCGAUACGAGUCAAUGAGAUACCAGCCACGAAAGUGGCCCUUGGCAGCUCUGCCAGUGAUGUUGGUCAAGGUCCU [#SwitchBubble 9 #StaticStem] | 1540 | 1140 | 1530 | 765 | 1360
AUGAGGAACAGUGAUCCUAUUCCAUGGGAAGGAGCGUAGGAUACUACAGGUAGGUCGCCCAGUGAUGUUGGGCGCGUGUUCUUGG [Soririza] | 120 | 112 | 113 | 140 | 117
AUUUUAGAGUGAUGUUCUAUUUGAUCAGAUACCAGACAAUUAUAAGUCCCUUGGCAGCUGUAGCCGAUAAAUUUAAUUAAUUUAA [JR_ExcTheophyA_Sub012] | 132 | 223 | 158 | 205 | 130
GGGCGCGGCGCGGCCGCCACUGGGCCUGGGCGCUCGCUGAGUGAUGUUCGCCGGCGGCUGGGUCGUAGGACCGGGUGCCGGCUGG [BDazzled - #3 SS Tryptophan B] | 610 | 490 | 1270 | 902 | 452
UGUACCGAGUAAGGAUAUGUCGUCGAAAGACGAAAUGGAGUGAUGUUCCUUAAACUGCGAAAGCAGACAGAAGGUACUUGGUACU [FmnBS 29 A11+U75] | 139 | 217 | 233 | 224 | 203
UGAUACCAGACGGCCGCCACUCCUGCAAGUCAAAGACUUGCUAAAGGAAUCGUCCAGUGAUGUUGGAGGACCGGGUCUGGUAUCU [TrypBX 18 #SwitchBubble #Palindromic #StaticStem] | 1040 | 745 | 1160 | 890 | 602
GUAGCACUUGAUAGUGAUGUUAGCAAGGGCAAGGAUAUCAUCUCAAUGAGAAGGUGUCCUUGCUAACAGCUACGGGAAUAUCCCA [Omei KL FMN A Exc D v5] | 173 | 424 | 577 | 579 | 630
UGUACCGAGUCAGGAUAUGGCGUCGAAAGACGAAUCUUAGUGAUGUUAAGGAUCUGCGAAAGCAGUCCAGAAGGGACUUGGUACU [FmnBS 26 U37+A49] | 236 | 422 | 495 | 444 | 475
AAUAAGCGUGGAAGGAGCGUCGUCCAGUGAUGUUGGAGUUAGAUACCAGUGAUGUUGGUUAGGCAGGUAGGUCGCCGCAAAGCUU [Exclusion Arginine B Gf 7] | 96.8 | 67.6 | 90.8 | 86.3 | 81
GCCGUACGCACGGAUACCAGCACUCGGUGAGUGAUGUUCACGGUGUGGUAUUCACCGGGCUGCCCUUGGCAGCCGUGCGUACGGC | 375 | 301 | 343 | 1280 | 283
CCGAAGAACCAGUGAUGUUGGUUGACUAGACAGGAUAUGAGCAACAUCAGAAGGGUCUGGCUUCGGGAGUGGGUCGCGCUGACCU [Geeredin] | 276 | 136 | 845 | 371 | 206
UAGUCCUAGUGAUCCUUAUCAAGUGGUGGGCGAGGACCGGUACGGCCGCCACUCGAAUAUGCAGUGAUGUUGUAAUCCGGACAAU [Exclusion - Tryptophan A (Freestyle 11)] | 897 | 906 | 852 | 899 | 580
GGGAGUAGUGCGGCCGCCACUGAGAAAGAAGAAGAAUAUAGUGAUGUUAUAUAGGAAAUAAAGAAUAGGACCGGGCAUUAGAUUU [SSTRyptB.M] | 259 | 211 | 235 | 181 | 211
GGGCGUGGCGCGGCCGCCACUGCGCCUGGGUGCUCGCUGAGUGAUGUUCGUCGGCGGUUGGGUGGUAGGACCGGGUGCUGGCCGG [BDazzled - #12 SS Tryptophan B] | 773 | 318 | 581 | 595 | 471

Sequence | apparent KD of K4 kissing-loop reporter (input ligand: FMN 200 uM) [nM] | apparent KD of K4 kissing-loop reporter (input ligand: arginine 13.2 mM) [nM] | apparent KD of K4 kissing-loop reporter (input ligand: none) [nM] | apparent KD of K4 kissing-loop reporter [1] [nM] | apparent KD of K4 kissing-loop reporter [2] [nM]
GAACGGCUGGCGGCCGCCACUGGUAUACGAGUGAUGUUCGGAUACACAUAGAAUAAGGUGAUUGACAGGACCGGGUCAGAGCCGG [#15 K4 Tryptophan B Same State] | 251 | 197 | 234 | 246 | 180
CCAUCGCUAUUCGAUACCAGUCAUUUUUUAUUUUAUUUUUUUUUUGGAGUGAUGUUCCAAGACCCUUGGCAGCGGAUAGUGAUGG [whbob_SS_Theo_B_th79] | 117 | 150 | 117 | 158 | 109
GCUUUCCGUGCGGCCGCCACUGAUCUAAGUGAUGUUUAGAUCGCAUUCGAACCGGUUACCCAGAGCAGGACCGGGCACCAGCGCU [theeternabot_exclusion_KL_Trp_B_35] | 97 | 84.9 | 89.8 | 90.1 | 91.9
AGCAGCAAAUCCUAGUGAUGUUAGGAUAUGUAGGAUAUCGGGAUACCGAGAAGGACAGAAGGAGGAGUGAUGUUCCUCAGCUGCA [FmnAX 23 #DoubleAptamer #DoubleK4 #SwitchBubble] | 116 | 106 | 104 | 102 | 94.9
AGUGAUAUAUGAGGAUAUGGGUUUGUUAAUGAGUUAGUUUUAGUGUUGUUUGGUUAGUGAUGUUAUUUAGAAGGCGUGAGUGAUG [vkkjkjmullin] | 103 | 79.8 | 79.9 | 140 | 72.8
CGAGAGGUCUUGUUUGGAUGUGUUUUAUGGCGAGGACCGGUACGGCCGCCACUCGGGUGAUGUUAGUGAUGUUGAUGUAGUGAUG [dcdmullin] | 91.9 | 79.9 | 93.4 | 162 | 76.9
UGGCAGGUAUCGGCCGCCACUUUCUAGUACAUACGCAUAUCUUUACCAUCAGUGAUGUUGAUCAUAAGGACCGGGAUACAUCAGG [theeternabot_exclusion_KL_Trp_B_22] | 243 | 208 | 249 | 220 | 200
UGAUAGGACAGAAGGAGCGGAAGUGAUGUUUCCAAUGGAAUUAAGGUGUCAAAGACACCCUUCCAGGUAGGUCGCUGUCCUAUCU [ArgBX 18 #Palindromic #SwitchBubble #StaticStem] | 156 | 161 | 155 | 159 | 145
UGAUAGGACAGAAGGAGCGGUAGUGAUGUUGCCAAAAGGAUAAGGUGUCAAAAGACACCCUACCAGGUAGGUCGCUGUCCUAUCU | 175 | 216 | 154 | 179 | 152
CAUAGGAAACUAUGUAUCUCUCUGACUGAAGGAGCGCGUGAAAACGCAGGUAGGUCGCAGAAUUUAACAGAGAGUGAUGUUCUCU [Ex Arginine A K4 9] | 310 | 259 | 319 | 277 | 258
GUAUUGUGCCUGGAUACCAGACACCCGAGUGAUGUUCGGAGCAGAGUGAUGUUCUAAUAAGUCCCUUGGCAGCCGGUCGCAGUCG [Same State Theophylline B gf 4] | 810 | 869 | 914 | 535 | 886
GGUAUCUAUACAGAUACCAGUCGUACAGCUGCAUUACAGGUUAGUGAUGUUAACCUGUACGACCCUUGGCAGCUGUAUAGUAGUA [Theo B Ex t2b] | 101 | 72 | 91.8 | 100 | 94
UGUACCGAGGCAGGAUAUGUCGUCGAAAGACGAAAUGGAGUGAUGUUCCUUAAACUGCGAAAGCAGACAGAAGGGCCUUGGUACU [FmnBS 29 G10+C76] | 132 | 179 | 175 | 202 | 160
CCUAUCUCAUACGAUACCAGUCAACGAUAUUUUAUCGAUGCCAUCACCGAGUGAUGUUCGGACCCUUGGCAGCGUAUGGGAUAGG [Ex Theophylline B K4 4] | 248 | 244 | 270 | 445 | 251
AUUUUAGAGUGAUGUUCUAAUUGAUCAGAUACCAGACAAUUAUAAGUCCCUUGGCAGCUGUAGCCGAUAAAUUUAUUUAAUUUAA [JR_SSTheophyA_Sub024] | 229 | 275 | 302 | 373 | 225
AUUUUAAUCGCAGAUACCAGUCCAGAAUGAAUACUAUAGUGAUGUUAUAAUAAAGGGAAGGACCCUUGGCAGCUGUACUAUAUUA [AstrosSsTheB#9] | 467 | 287 | 445 | 304 | 281
GUCGAUGGUAACCGCUGACGUCGAUGAUGGGAGGAUAUGUUAGUUGACAGAAGGCCCAGUGAUGUUGGGCGUUUGUCUUGGUAUA [Ustecexe] | 517 | 143 | 145 | 134 | 136
AACGGCCAGUCGGCCGCCACUCCAAGCAGUGAUGUUGCUAAGUUUCUAAAAGAGUGAUGUUCUUAGAGGACCGGGACUGAUGUAA [Exclusion Tryptophan B Gf 6] | 130 | 155 | 154 | 161 | 104
GUGGAAAUCAGAAGGAGCGUCUACAAUAAGAAAACCAGUGAUGUUGGUUUUAUUUAAUGAAGACAGGUAGGUCGCUGAAUUUCUA [Same State Arginie B GF 20] | 138 | 106 | 118 | 105 | 118
UGUACCGAGUCAGGAUAUGGUAUAGCGGAAACGCACCAGUGAUGUUGGACGCGAAAGCGAUAAAAUCCAGAAGGGACUUGGUACU [FmnBS 20 #SwitchBubble #StaticStem #DoubleMagnetSystem] | 184 | 224 | 209 | 221 | 207
AAGCAGUCACUCGUAGCCAUCGAAGAUGGUCGAGGACCGGUACGGCCGCCACUCGGAGUGAUGUUCCGAAGACUGCAAAAUAAAA | 272 | 313 | 337 | 378 | 364
